Test results taken from the RNAGym collection of RNA variant scans (doi:10.7554/elife.80360).

B1: Hairpin Ribozyme (parent)
chain: GUCCUCUUUCACGUGCGCGUGAAAGAGAGAAGUGAACCAGAGAAACACACGUUGUGGUAUAUUACCUGGUA

Variants of: B1
Assay: self-cleavage, relative activity (ratio to wild type); higher = more cleavage; co-transcriptional

Row | Variant | self-cleavage
1 | GUCCUUUUUCACGUACGCGUGAAAGAGAGAAGUGAACCAGAGAAACACACGUUGUGGUAUAUUACCUGGUA [C6U G15A] | 0.794
2 | GUCCUUUUUCACGUCCGCGUGAAAGAGAGAAGUGAACCAGAGAAACACACGUUGUGGUAUAUUACCUGGUA [C6U G15C] | 0.722
3 | GUCCUUUUUCACGUGCGCAUGAAAGAGAGAAGUGAACCAGAGAAACACACGUUGUGGUAUAUUACCUGGUA [C6U G19A] | 0.793
4 | GUCCUUUUUCACGUGCGCCUGAAAGAGAGAAGUGAACCAGAGAAACACACGUUGUGGUAUAUUACCUGGUA [C6U G19C] | 0.719
5 | GUCCUUUUUCACGUGCGCGUAAAAGAGAGAAGUGAACCAGAGAAACACACGUUGUGGUAUAUUACCUGGUA [C6U G21A] | 0.572
6 | GUCCUUUUUCACGUGCGCGUGAAAGAGAUAAGUGAACCAGAGAAACACACGUUGUGGUAUAUUACCUGGUA [C6U G29U] | 0.12
7 | GUCCUUUUUCACGUGCGCGUGAAAGAGAGAAAUGAACCAGAGAAACACACGUUGUGGUAUAUUACCUGGUA [C6U G32A] | 0.114
8 | GUCCUUUUUCACGUGCGCGUGAAAGAGAGAACUGAACCAGAGAAACACACGUUGUGGUAUAUUACCUGGUA [C6U G32C] | 0.0823
9 | GUCCUUUUUCACGUGCGCGUGAAAGAGAGAAUUGAACCAGAGAAACACACGUUGUGGUAUAUUACCUGGUA [C6U G32U] | 0.0839
10 | GUCCUUUUUCACGUGCGCGUGAAAGAGAGAAGUGAACCACAGAAACACACGUUGUGGUAUAUUACCUGGUA [C6U G40C] | 0.14
11 | GUCCUUUUUCACGUGCGCGUGAAAGAGAGAAGUGAACCAGAUAAACACACGUUGUGGUAUAUUACCUGGUA [C6U G42U] | 0.323
12 | GUCCUUUUUCACGUGCGCGUGAAAGAGAGAAGUGAACCAGAGAAACACACCUUGUGGUAUAUUACCUGGUA [C6U G51C] | 0.823
13 | GUCCUUUUUCACGUGCGCGUGAAAGAGAGAAGUGAACCAGAGAAACACACGUUCUGGUAUAUUACCUGGUA [C6U G54C] | 0.311
14 | GUCCUUUUUCACGUGCGCGUGAAAGAGAGAAGUGAACCAGAGAAACACACGUUGUCGUAUAUUACCUGGUA [C6U G56C] | 0.149
15 | GUCCUUUUUCACGUGCGCGUGAAAGAGAGAAGUGAACCAGAGAAACACACGUUGUGCUAUAUUACCUGGUA [C6U G57C] | 0.135
16 | GUCCUUUUUCACGUGCGCGUGAAAGAGAGAAGUGAACCAGAGAAACACACGUUGUGGUAUAUUACCUGCUA [C6U G69C] | 0.178
17 | GUCCUUUUUCACGUGCGCGUGAAAGAGAGAAGUGAACCAGAGAAACACACGUUGUGGUAUAUUACCUGUUA [C6U G69U] | 0.256
18 | GUCCUUGUUCACGUGCGCGUGAAAGAGAGAAGUGAACCAGAGAAACACACGUUGUGGUAUAUUACCUGGUA [C6U U7G] | 0.449
19 | GUCCUUUAUCACGUGCGCGUGAAAGAGAGAAGUGAACCAGAGAAACACACGUUGUGGUAUAUUACCUGGUA [C6U U8A] | 0.538
20 | GUCCUUUGUCACGUGCGCGUGAAAGAGAGAAGUGAACCAGAGAAACACACGUUGUGGUAUAUUACCUGGUA [C6U U8G] | 0.431
21 | GUCCUUUUACACGUGCGCGUGAAAGAGAGAAGUGAACCAGAGAAACACACGUUGUGGUAUAUUACCUGGUA [C6U U9A] | 0.517
22 | GUCCUUUUUCACGUGCGCGGGAAAGAGAGAAGUGAACCAGAGAAACACACGUUGUGGUAUAUUACCUGGUA [C6U U20G] | 0.637
23 | GUCCUUUUUCACGUGCGCGUGAAAGAGAGAAGCGAACCAGAGAAACACACGUUGUGGUAUAUUACCUGGUA [C6U U33C] | 0.135
24 | GUCCUUUUUCACGUGCGCGUGAAAGAGAGAAGUGAACCAGAGAAACACACGAUGUGGUAUAUUACCUGGUA [C6U U52A] | 0.965
25 | GUCCUUUUUCACGUGCGCGUGAAAGAGAGAAGUGAACCAGAGAAACACACGCUGUGGUAUAUUACCUGGUA [C6U U52C] | 0.773
26 | GUCCUUUUUCACGUGCGCGUGAAAGAGAGAAGUGAACCAGAGAAACACACGUAGUGGUAUAUUACCUGGUA [C6U U53A] | 0.912

Row | Variant | self-cleavage
27 | GUCCUUUUUCACGUGCGCGUGAAAGAGAGAAGUGAACCAGAGAAACACACGUUGAGGUAUAUUACCUGGUA [C6U U55A] | 0.217
28 | GUCCUUUUUCACGUGCGCGUGAAAGAGAGAAGUGAACCAGAGAAACACACGUUGCGGUAUAUUACCUGGUA [C6U U55C] | 0.183
29 | GUCCUUUUUCACGUGCGCGUGAAAGAGAGAAGUGAACCAGAGAAACACACGUUGGGGUAUAUUACCUGGUA [C6U U55G] | 0.375
30 | GUCCUUUUUCACGUGCGCGUGAAAGAGAGAAGUGAACCAGAGAAACACACGUUGUGGUACAUUACCUGGUA [C6U U60C] | 0.794
31 | GUCCUUUUUCACGUGCGCGUGAAAGAGAGAAGUGAACCAGAGAAACACACGUUGUGGUAUAAUACCUGGUA [C6U U62A] | 0.266
32 | GUCCUCAUUCACGUGCGCGUGAAAGAGAGAAGUGAACCAGAGAAACACACGUUGUGGUAUAUUACCUGGUA [U7A] | 0.92
33 | GUCCUCAUUCCCGUGCGCGUGAAAGAGAGAAGUGAACCAGAGAAACACACGUUGUGGUAUAUUACCUGGUA [U7A A11C] | 0.636
34 | GUCCUCAUUCACGUGCGCGUGCAAGAGAGAAGUGAACCAGAGAAACACACGUUGUGGUAUAUUACCUGGUA [U7A A22C] | 0.649
35 | GUCCUCAUUCACGUGCGCGUGGAAGAGAGAAGUGAACCAGAGAAACACACGUUGUGGUAUAUUACCUGGUA [U7A A22G] | 0.61
36 | GUCCUCAUUCACGUGCGCGUGAUAGAGAGAAGUGAACCAGAGAAACACACGUUGUGGUAUAUUACCUGGUA [U7A A23U] | 0.791
37 | GUCCUCAUUCACGUGCGCGUGAACGAGAGAAGUGAACCAGAGAAACACACGUUGUGGUAUAUUACCUGGUA [U7A A24C] | 1.02
38 | GUCCUCAUUCACGUGCGCGUGAAAGAGCGAAGUGAACCAGAGAAACACACGUUGUGGUAUAUUACCUGGUA [U7A A28C] | 0.471
39 | GUCCUCAUUCACGUGCGCGUGAAAGAGGGAAGUGAACCAGAGAAACACACGUUGUGGUAUAUUACCUGGUA [U7A A28G] | 1.03
40 | GUCCUCAUUCACGUGCGCGUGAAAGAGAGGAGUGAACCAGAGAAACACACGUUGUGGUAUAUUACCUGGUA [U7A A30G] | 0.305
41 | GUCCUCAUUCACGUGCGCGUGAAAGAGAGACGUGAACCAGAGAAACACACGUUGUGGUAUAUUACCUGGUA [U7A A31C] | 0.0614
42 | GUCCUCAUUCACGUGCGCGUGAAAGAGAGAGGUGAACCAGAGAAACACACGUUGUGGUAUAUUACCUGGUA [U7A A31G] | 0.77
43 | GUCCUCAUUCACGUGCGCGUGAAAGAGAGAUGUGAACCAGAGAAACACACGUUGUGGUAUAUUACCUGGUA [U7A A31U] | 0.11
44 | GUCCUCAUUCACGUGCGCGUGAAAGAGAGAAGUGUACCAGAGAAACACACGUUGUGGUAUAUUACCUGGUA [U7A A35U] | 0.714
45 | GUCCUCAUUCACGUGCGCGUGAAAGAGAGAAGUGAUCCAGAGAAACACACGUUGUGGUAUAUUACCUGGUA [U7A A36U] | 0.568
46 | GUCCUCAUUCACGUGCGCGUGAAAGAGAGAAGUGAACCUGAGAAACACACGUUGUGGUAUAUUACCUGGUA [U7A A39U] | 0.546
47 | GUCCUCAUUCACGUGCGCGUGAAAGAGAGAAGUGAACCAGCGAAACACACGUUGUGGUAUAUUACCUGGUA [U7A A41C] | 1.3
48 | GUCCUCAUUCACGUGCGCGUGAAAGAGAGAAGUGAACCAGAGCAACACACGUUGUGGUAUAUUACCUGGUA [U7A A43C] | 0.186
49 | GUCCUCAUUCACGUGCGCGUGAAAGAGAGAAGUGAACCAGAGACACACACGUUGUGGUAUAUUACCUGGUA [U7A A44C] | 0.177
50 | GUCCUCAUUCACGUGCGCGUGAAAGAGAGAAGUGAACCAGAGAAACCCACGUUGUGGUAUAUUACCUGGUA [U7A A47C] | 0.34
51 | GUCCUCAUUCACGUGCGCGUGAAAGAGAGAAGUGAACCAGAGAAACGCACGUUGUGGUAUAUUACCUGGUA [U7A A47G] | 0.0992
52 | GUCCUCAUUCACGUGCGCGUGAAAGAGAGAAGUGAACCAGAGAAACUCACGUUGUGGUAUAUUACCUGGUA [U7A A47U] | 0.0924

Row | Variant | self-cleavage
53 | GUCCUCAUUCACGUGCGCGUGAAAGAGAGAAGUGAACCAGAGAAACACACGUUGUGGUUUAUUACCUGGUA [U7A A59U] | 0.182
54 | GUCCUCAUUCACGUGCGCGUGAAAGAGAGAAGUGAACCAGAGAAACACACGUUGUGGUAUAUUUCCUGGUA [U7A A64U] | 0.248
55 | GUCCUCAUUCACGUGCGCGUGAAAGAGAGAAGUGAACCAGAGAAACACACGUUGUGGUAUAUUACCUGGUC [U7A A71C] | 1.34
56 | GUCCUCAUUGACGUGCGCGUGAAAGAGAGAAGUGAACCAGAGAAACACACGUUGUGGUAUAUUACCUGGUA [U7A C10G] | 0.541
57 | GUCCUCAUUCAAGUGCGCGUGAAAGAGAGAAGUGAACCAGAGAAACACACGUUGUGGUAUAUUACCUGGUA [U7A C12A] | 0.549
58 | GUCCUCAUUCAUGUGCGCGUGAAAGAGAGAAGUGAACCAGAGAAACACACGUUGUGGUAUAUUACCUGGUA [U7A C12U] | 0.797
59 | GUCCUCAUUCACGUGAGCGUGAAAGAGAGAAGUGAACCAGAGAAACACACGUUGUGGUAUAUUACCUGGUA [U7A C16A] | 0.911
60 | GUCCUCAUUCACGUGCGAGUGAAAGAGAGAAGUGAACCAGAGAAACACACGUUGUGGUAUAUUACCUGGUA [U7A C18A] | 1.12
61 | GUCCUCAUUCACGUGCGCGUGAAAGAGAGAAGUGAAACAGAGAAACACACGUUGUGGUAUAUUACCUGGUA [U7A C37A] | 0.261
62 | GUCCUCAUUCACGUGCGCGUGAAAGAGAGAAGUGAAUCAGAGAAACACACGUUGUGGUAUAUUACCUGGUA [U7A C37U] | 0.403
63 | GUCCUCAUUCACGUGCGCGUGAAAGAGAGAAGUGAACAAGAGAAACACACGUUGUGGUAUAUUACCUGGUA [U7A C38A] | 0.28
64 | GUCCUCAUUCACGUGCGCGUGAAAGAGAGAAGUGAACCAGAGAAACACAAGUUGUGGUAUAUUACCUGGUA [U7A C50A] | 0.175
65 | GUCCUCAUUCACGUGCGCGUGAAAGAGAGAAGUGAACCAGAGAAACACAGGUUGUGGUAUAUUACCUGGUA [U7A C50G] | 0.269
66 | GUCCUCAUUCACGUGCGCGUGAAAGAGAGAAGUGAACCAGAGAAACACACGUUGUGGUAUAUUAACUGGUA [U7A C65A] | 0.876
67 | GUCCUCAUUCACGUGCGCGUGAAAGAGAGAAGUGAACCAGAGAAACACACGUUGUGGUAUAUUAUCUGGUA [U7A C65U] | 0.349
68 | GUCCUCAUUCACGUGCGCGUGAAAGAGAGAAGUGAACCAGAGAAACACACGUUGUGGUAUAUUACAUGGUA [U7A C66A] | 0.269
69 | GUCCUCAUUCACGUGCGCGUGAAAGAGAGAAGUGAACCAGAGAAACACACGUUGUGGUAUAUUACUUGGUA [U7A C66U] | 0.461
70 | GUCCUCAUUCACGUGCUCGUGAAAGAGAGAAGUGAACCAGAGAAACACACGUUGUGGUAUAUUACCUGGUA [U7A G17U] | 0.89
71 | GUCCUCAUUCACGUGCGCAUGAAAGAGAGAAGUGAACCAGAGAAACACACGUUGUGGUAUAUUACCUGGUA [U7A G19A] | 0.845
72 | GUCCUCAUUCACGUGCGCGUCAAAGAGAGAAGUGAACCAGAGAAACACACGUUGUGGUAUAUUACCUGGUA [U7A G21C] | 0.664
73 | GUCCUCAUUCACGUGCGCGUUAAAGAGAGAAGUGAACCAGAGAAACACACGUUGUGGUAUAUUACCUGGUA [U7A G21U] | 0.683
74 | GUCCUCAUUCACGUGCGCGUGAAAGACAGAAGUGAACCAGAGAAACACACGUUGUGGUAUAUUACCUGGUA [U7A G27C] | 0.197
75 | GUCCUCAUUCACGUGCGCGUGAAAGAUAGAAGUGAACCAGAGAAACACACGUUGUGGUAUAUUACCUGGUA [U7A G27U] | 0.251
76 | GUCCUCAUUCACGUGCGCGUGAAAGAGAGAAAUGAACCAGAGAAACACACGUUGUGGUAUAUUACCUGGUA [U7A G32A] | 0.145
